The target in assay [1] is T1, GFP protein (Aequorea victoria (Water jellyfish) …, UniProt P42212 1-238 = GFP).
T1 construct: Purified GFP used as BLI analyte, in crystals and in NANEX; also called Green fluorescent protein
The experiment in a line: BLI (OctetRed), biotinylated Nb on streptavidin sensor, GFP 8-500 nM.
Protocol: (§1) Streptavidin-coated Octet® biosensors were used to capture biotinylated Nanobodies (1 μg/mL). Binding and dissociation isotherms at several GFP concentrations (8 nM to 500 nM range) were analyzed on an OctetRed (molecular devices). All assays were performed in Hepes 25 mM pH7.5, NaCl 150 mM supplemented with BSA 0.1% and Tween²⁰ 0.005% at room temperature.

Assay [2] addresses T1, GFP protein. Kind of assay: BLI.
Protocol: as §1
Assay [3] addresses T2, recombinant human coagulation factor IXa (human, UniProt P00740 134-191; P00740 227-461).
T2 construct: range 134-191;range 227-461; Fluorescently labelled with Dylight-647 for the NANEX runs; also called FIXa
Kind of assay: BLI. In general terms: In BLI a coated tip is dipped into the sample, and binding shifts an interference pattern.

Assay [4] addresses T3, FmIH_lectin_mCherry_his (CA17337).
T3 construct: also called mCherry-fusion protein
The experiment in a line: NANEX column: lysate with FmlH_lectin_mCherry_his on immobilised CA16964; A280 and SDS-PAGE [D00043 FIG. 39B].

For assay [5], the target named is mCherry. Kind of assay: BLI (OctetRed), biotinylated Nb on streptavidin sensor, mCherry 8.23-222 nM.
Protocol: (§2) Streptavidin-coated Octet® biosensors were used to capture biotinylated Nanobodies (1 μg/mL). […] All assays were performed in Hepes 25 mM pH7.5, NaCl 150 mM supplemented with BSA 0.1% and Tween²⁰ 0.005% at room temperature.
The target in assay [6] is mCherry. Kind of assay: BLI.
Protocol: as §2
Assay [7] concerns the target T4, SMT3 (YDR510W), ubiquitin-like protein SMT3 (yeast).
T4 construct: also called yeast SUMO protein
T4 chain: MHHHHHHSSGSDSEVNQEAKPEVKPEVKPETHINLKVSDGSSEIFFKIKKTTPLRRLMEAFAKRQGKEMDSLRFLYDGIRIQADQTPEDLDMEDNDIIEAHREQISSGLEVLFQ
Kind of assay: BLI (OctetRed), biotinylated Nb on streptavidin sensor, SMT3 10-500 nM.
Protocol: (§3) Streptavidin-coated Octet® biosensors were used to capture biotinylated Nanobodies (1 μg/mL). Binding and dissociation isotherms at several SMT3 concentrations (10 nM to 500 nM range) were analyzed on an OctetRed (molecular devices). All assays were performed in Hepes 25 mM pH7.5, NaCl 150 mM supplemented with BSA 0.1% and Tween²⁰ 0.005% at room temperature.

Assay [8] has as its target T4, SMT3 (YDR510W), ubiquitin-like protein …. Kind of assay: BLI.
Protocol: as §3
For assay [9], the target named is T5, GST (Glutathione S-transferase) (Schistosoma japonicum (Blood fluke), UniProt P08515 1-218 = GST). Kind of assay: BLI (OctetRed), biotinylated Nb on streptavidin sensor, GST 63-1667 nM.
Protocol: as §2
In assay [10] the target is T5, GST (Glutathione S-transferase). The experiment in a line: BLI.
Protocol: as §2
Assay [11] addresses T1, GFP protein. Kind of assay: BLI (OctetRed), biotinylated Nb on streptavidin sensor, GFP as analyte.
Protocol: (§4) Streptavidin-coated Octet® biosensors were used to capture biotinylated Nanobodies (1 μg/mL). Binding and dissociation isotherms at several GFP concentrations (1 nM to 5 μM range) were analyzed on an OctetRed (molecular devices). All assays were performed in Hepes 25 mM pH7.5, NaCl 150 mM supplemented with BSA 0.1% and Tween²⁰ 0.005% at room temperature.
The target in assay [12] is T1, GFP protein. Kind of assay: comparison of affinities told with the NANEX result.
Assay [13] concerns the target T1, GFP protein. The experiment in a line: BLI. The source holds these as a separate data set.
Protocol: as §4
Assay [14] concerns the target T2, recombinant human coagulation factor IXa. The experiment in a line: tandem NANEX: displacement of factor IXa from immobilised CA10502 by 1 mL of 2.5 mg/mL (24 µM) MegaBody CA14208; A280/A650 and SDS-PAGE.

T2 sequence (P00740 134-191 limits assumed, form in doubt, chain 1 of 2): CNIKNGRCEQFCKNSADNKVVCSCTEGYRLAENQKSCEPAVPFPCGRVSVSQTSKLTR
T2 sequence (P00740 227-461 limits assumed, form in doubt, chain 2 of 2): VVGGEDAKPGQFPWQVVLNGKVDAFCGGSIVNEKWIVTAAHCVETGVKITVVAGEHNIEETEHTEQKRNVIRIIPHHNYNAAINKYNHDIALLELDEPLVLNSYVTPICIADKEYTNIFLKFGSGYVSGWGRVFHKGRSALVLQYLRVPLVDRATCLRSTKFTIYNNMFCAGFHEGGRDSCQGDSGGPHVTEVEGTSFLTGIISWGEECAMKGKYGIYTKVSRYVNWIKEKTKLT

B1: CA16047 second GFP Nanobody stripper (including C-terminal 6xHis+EPEA tag) (VHH)
VHH: QVQLQESGGGLVQAGGSLRLSCAASGFTFDGYAIGWFRQAPGKEREGVSCISSSDGSTYYADSVKGRFTISSDNAKNTVYLQMNSLKPEDTAVYYCVAAWSPSTGCGSYYVQRPPGYDYWGQGTQVTVSS
modifications: biotinylated for BLI
notes: also called Nb CA16047
A word on the Kd: it is a measure of binding affinity in units of concentration. By koff is commonly meant the first-order rate constant of dissociation. As a reminder, the kon is the second-order rate constant of association. For the molecule B1, in assay [1], the Kd came out at 0.00615 µM, the koff stood at 0.00098 s⁻¹ and the kon was found to be 234000 M⁻¹ s⁻¹. Besides, in [2], the “Half time ratio (relative to wt)” value was determined as 1 fold and the “KD ratio (relative to wt)” value was 1 fold.

B2: CA16695 second GFP Nanobody trapper (Y119F) (including C-terminal 6xHis+EPEA tag) (VHH)
VHH: QVQLQESGGGLVQAGGSLRLSCAASGFTFDGYAIGWFRQAPGKEREGVSCISSSDGSTYYADSVKGRFTISSDNAKNTVYLQMNSLKPEDTAVYYCVAAWSPSTGCGSYYVQRPPGYDFWGQGTQVTVSS
modifications: biotinylated for BLI
notes: Y119F mutant of CA16047; also called Nb CA16695
B2: in assay [1], the affinity, expressed as Kd, was 0.00853 µM; the koff was found to be 0.00167 s⁻¹; the kon came out at 200000 M⁻¹ s⁻¹. In assay [2], the “Half time ratio (relative to wt CA16047)” value is 1.78 fold and the “KD ratio (relative to wt CA16047)” value is 1.37 fold.

B3: CA10304 FIXa-specific Nb (C-term. 6xHis+EPEA) (VHH)
VHH: QVQLVESGGGLVQAGGSLKLSCAASERTFSGTVMGWFRQPPGKEREFVGDISWSGSITDYADSVKGRFTISRDNAKNTMYLQMDSLKPEDTAVYYCAARVGGYSYIMSRSPADFGSWGQGTQVTVSS
notes: also called stripper1
For the molecule B3, in assay [3], the Kd amounted to 0.046 µM, the koff was found to be 0.0035 s⁻¹ and the kon came out at 88000 M⁻¹ s⁻¹.

B4: CA16964 mCherry Nanobody trapper (including C-terminal 6xHis+EPEA tag) (VHH)
VHH: QVQLVESGGGLVQAGGSLRLSCAASGRDFSFDGMGWFRQAPGKEREFVAAISWSGLRIGYSDSVKGRFTISRDNAETTVHLQMNSLKPEDTAVYYCATGSHATTKAQLYDYEYWGQGTQVTVSS
modifications: biotinylated for BLI
notes: also called Nb CA16964
Take B4: the binding result in assay [4] was “binds”. Moreover, in assay [5], binding was put at a Kd of 0.00653 µM, the koff is 0.00436 s⁻¹ and the kon amounted to 694000 M⁻¹ s⁻¹. In assay [6], the “Half time ratio (relative to CA17302)” value was found to be 4.27 fold and the “KD ratio (relative to CA17302)” value is 3.86 fold.

B5: CA15839 SMT3 Nanobody stripper (including C-terminal 6xHis+EPEA tag) (VHH)
VHH: QVQLVESGGGSAQTGGSLTLSCTASGSIVSMNSMGWFRRAPWKGREWLGDIGRDGRTSYASSVVGRFHISRDEAKNTVYLQMTRLKPEDAAMYYCAAVPFGDDDVGEWEYWGQGTQVTVSS
modifications: biotinylated for BLI
B5: in [7], the affinity, expressed as Kd, was 0.00667 µM; the koff is 0.00212 s⁻¹; the kon came out at 318000 M⁻¹ s⁻¹. Besides, in [8], the “Half time ratio (relative to wt)” value was found to be 1 fold and the “KD ratio (relative to wt)” value was 1 fold.

B6: CA16687 SMT3 Nanobody trapper (D50A) (including C-terminal 6xHis+EPEA tag) (VHH)
VHH: QVQLVESGGGSAQTGGSLTLSCTASGSIVSMNSMGWFRRAPWKGREWLGAIGRDGRTSYASSVVGRFHISRDEAKNTVYLQMTRLKPEDAAMYYCAAVPFGDDDVGEWEYWGQGTQVTVSS
modifications: biotinylated for BLI
In [7], B6 registered a Kd of 0.029 µM, a koff of 0.00797 s⁻¹ and a kon of 387000 M⁻¹ s⁻¹. Further, in assay [8], the “Half time ratio (relative to wt CA15839)” value is 3.75 fold and the “KD ratio (relative to wt CA15839)” value is 4.34 fold.

B7: CA10502 FIXa-specific Nb (Trapper2; C-term. 6xHis+EPEA) (VHH)
VHH: QVQLQESGGGLVQAGGSLRLSCAASGRTSRVYGVGWFRQAPGKERELVASISTSGSVTNVADSVKGRFTISRDNAKTTVYLQMNSLKPEDTALYYCAADPHGRPYGWGQGTQVTVSS
For B7, in assay [3], the Kd was determined as 0.074 µM, the koff was 0.004 s⁻¹ and the kon was 70000 M⁻¹ s⁻¹.

B8: CA11138 FIXa-specific Nb (C-term. 6xHis+EPEA) (VHH)
VHH: QVQLVESGGGLVQAGGSLRLSCAASERTASNYVMGWFRQAPGKEREFVAFISRTGGSTYYADSVKGRFTVSRDGAKNTVYLQMNTMKPEDTAVYYCAASLYIRNYYEGTNYAYWGQGTQVTVSS
notes: also called trapper1
On to B8, for which, in assay [3], the Kd turned out to be 0.141 µM, the koff came out at 0.0042 s⁻¹ and the kon is 34000 M⁻¹ s⁻¹.

B9: CA16239 GST Nanobody stripper (including C-terminal 6xHis+EPEA tag) (VHH)
VHH: QVQLVESGGGLVQAGGSLRLSCAASERTFSTYNMAWFRQAPGKEREFVAVISWNGGTTNSADSVKGRFTISRDNAKNTVYLQMNSLKPEDTAVYYCAARRVPYLSGTRYYTGEVDYDTWGQGTQVTVSS
modifications: biotinylated for BLI
On to B9, for which, in assay [9], the Kd came to 0.00486 µM, the koff came to 0.00309 s⁻¹ and the kon was found to be 720000 M⁻¹ s⁻¹. In assay [10], the “Half time ratio (relative to wt)” value was 1 fold and the “KD ratio (relative to wt)” value came to 1 fold.

B10: CA16240 GST Nanobody trapper (Y109A) (including C-terminal 6xHis+EPEA tag) (VHH)
VHH: QVQLVESGGGLVQAGGSLRLSCAASERTFSTYNMAWFRQAPGKEREFVAVISWNGGTTNSADSVKGRFTISRDNAKNTVYLQMNSLKPEDTAVYYCAARRVPYLSGTRAYTGEVDYDTWGQGTQVTVSS
modifications: biotinylated for BLI
notes: Y109A mutant of CA16239
In [9], B10 came in with a Kd of 0.659 µM, a koff of 0.251 s⁻¹ and a kon of 512000 M⁻¹ s⁻¹. In [10], the “Half time ratio (relative to wt CA16239)” value turned out to be 84 fold and the “KD ratio (relative to wt CA16239)” value is 136 fold.

B11: CA15818 GFP-NbF103A (C-term. 6xHis + EPEA) (VHH)
VHH: QVQLVESGGGLVQAGGSLRLSCAASGRTFSTAAMGWFRQAPGKERDFVAGIYWTVGSTYYADSAKGRFTISRDNAKNTVYLQMDSLKPEDTAVYYCAARRRGATLAPTRANEYDYWGQGTQVTVSS
modifications: biotinylated for BLI
notes: F103A mutant of CA12760; also called Nb CA15818
For the molecule B11, in assay [11], binding was put at a Kd of 0.0015 µM and the koff was found to be 0.00029 s⁻¹. Further, the “affinity, fold higher than the trapper CA15816” value in assay [12] came to 2 fold. In assay [13], the “Half-time ratio (relative to the wt Nb CA12760)” value was 9 fold and the “KD ratio (relative to the wt Nb CA12760)” value was found to be 30 fold.

B12: CA15861 GFP-NbT54A/V55A/F103A (C-term. 6xHis + EPEA) (VHH)
VHH: QVQLVESGGGLVQAGGSLRLSCAASGRTFSTAAMGWFRQAPGKERDFVAGIYWAAGSTYYADSAKGRFTISRDNAKNTVYLQMDSLKPEDTAVYYCAARRRGATLAPTRANEYDYWGQGTQVTVSS
modifications: biotinylated for BLI
notes: T54A/V55A/F103A mutant of CA12760; also called Nb CA15861
As for B12, in assay [11], the Kd was determined as 0.111 µM and the koff is 0.0458 s⁻¹. Also, the “affinity, fold lower than the trapper CA15816” value in [12] is ~100 fold. In addition, in [13], the “Half-time ratio (relative to the wt Nb CA12760)” value turned out to be 1400 fold and the “KD ratio (relative to the wt Nb CA12760)” value was found to be 2000 fold.

B13: CA14208 FIXa-specific MegaBody (Stripper2; C-term. 6xHis+EPEA) (other)
chain: QVQLVESGGGLVYKEETQSGLNNYARVVEKGQYDSLEIPAQVAASWESGRDDAAVFGFIDKEQLDKYVANGGKRSDWTVKFAENRSQDGTLLGYSLLQESVDQASYMYSDNHYLAEMATILGKPEEAKRYRQLAQQLADYINTCMFDPTTQFYYDVRIEDKPLANGCAGKPIVERGKGPEGWSPLFNGAATQANADAVVKVMLDPKEFNTFVPLGTAALTNPAFGADIYWRGRVWVDQFWFGLKGMERYGYRDDALKLADTFFRHAKGLTADGPIQENYNPLTGAQQGAPNFSWSAAHLYMLYNDFFRKQASGGGSGGGGSGGGGSGNADNYKNVINRTGAPQYMKDYDYDDHQRFNPFFDLGAWHGHLLPDGPNTMGGFPGVALLTEEYINFMASNFDRLTVWQDGKKVDFTLEAYSIPGALVQKLTAKDVQVEMTLRFATPRTSLLETKITSNKPLDLVWDGELLEKLEAKEGKPLSDKTIAGEYPDYQRKISATRDGLKVTFGKVRATWDLLTSGESEYQVHKSLPVQTEINGNRFTSKAHINGSTTLYTTYSHLLTAQEVSKEQMQIRDILARPAFYLTASQQRWEEYLKKGLTNPDATPEQTRVAVKAIETLNGNWRSPGGAVKFNTVTPSVTGRWFSGNQTWPWDTWKQAFAMAHFNPDIAKENIRAVFSWQIQPGDSVRPQDVGFVPDLIAWNLSPERGGDGGNWNERNTKPSLAAWSVMEVYNVTQDKTWVAEMYPKLVAYHDWWLRNRDHNGNGVPEYGATRDKAHNTESGEMLFTVKKDSLRLSCATSGIGFSIYSMGWYRQAPGKERELVASIAGNEDKDYVESVKGRFTISRDYAKNTLYLEMSGLKFEDTAMYYCAAGLRRGVSLTPYYWGQGTQVTVSSHHHHHHEPEA
notes: Functionalized Nanobody derived from CA10309; also called MegaBody MbCA10309^YgjK; MbNbFIXa^cHopQ
Consider B13, for which, in assay [14], the binding result is “binds”.

B14: CA10309 FIXa-specific Nb (Stripper2; C-term. 6xHis+EPEA) (VHH)
VHH: QVQLVESGGGLVQAGGSLRLSCATSGIGFSIYSMGWYRQAPGKERELVASIAGNEDKDYVESVKGRFTISRDYAKNTLYLEMSGLKFEDTAMYYCAAGLRRGVSLTPYYWGQGTQVTVSS
As for B14, in assay [3], the Kd was 0.021 µM, the koff came out at 0.00073 s⁻¹ and the kon was 62000 M⁻¹ s⁻¹.

(Values after patent US20240027467A1 (VIB VZW, published 2024).)
